From paper doi:10.1101/2023.04.17.536592 (bioRxiv, 2023)

B2: T. brucei histone H2B (natural protein, Trypanosoma brucei brucei)
chain: ATPKSTPAKTRKEAKKTRRQRKRTWNVYVSRSLRSINSQMSMTSRTMKIVNSFVNDLFERIAAEAATIVRVNRKRTLGARELQTAVRLVLPADLAKHAMAEGTKAVSHASS
notes: also called Tb H2B

Experiments:
T. brucei histone H2B = target: B2; test: cryo-EM structure; details: both partners purified
T. brucei histone H2A = target: T1, T. brucei histone H2A (Trypanosoma brucei brucei, UniProt Q57YA3 2-134); test: cryo-EM structure; details: both partners purified
T1 construct: also called Tb H2A
T1 sequence: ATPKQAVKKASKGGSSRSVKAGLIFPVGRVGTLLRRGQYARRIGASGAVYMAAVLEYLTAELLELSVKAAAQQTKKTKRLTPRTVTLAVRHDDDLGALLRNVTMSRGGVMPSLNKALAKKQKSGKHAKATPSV

B1: T. brucei histone H4 (natural protein)
chain: not shown
notes: also called Tb H4
B1: binds (T. brucei histone H2B).

B2: binds (T. brucei histone H2A).
